Measured values reported in PMC9482650, “Quantitative fragmentomics allow affinity mapping of interactomes” (Nature Communications, 2022).

T1: CARD11, Q9BXL7
T1 sequence (Q9BXL7 662-765, limits assumed, looked up): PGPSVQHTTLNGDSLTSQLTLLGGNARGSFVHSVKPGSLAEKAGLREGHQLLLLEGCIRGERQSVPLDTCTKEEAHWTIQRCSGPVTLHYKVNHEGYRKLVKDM

T2: DLG3_2, Q92796
T2 sequence (Q92796 221-321, limits assumed, looked up): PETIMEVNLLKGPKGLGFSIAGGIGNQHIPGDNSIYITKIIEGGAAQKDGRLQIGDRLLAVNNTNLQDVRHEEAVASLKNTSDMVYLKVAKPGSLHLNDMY

T3: DLG3_3, Q92796
T3 sequence (Q92796 374-475, limits assumed, looked up): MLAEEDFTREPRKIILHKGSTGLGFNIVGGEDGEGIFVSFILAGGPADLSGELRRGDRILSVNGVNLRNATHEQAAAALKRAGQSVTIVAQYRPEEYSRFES

T4: GRIP1_2, Q9Y3R0
T4 sequence (Q9Y3R0 145-248, limits assumed, looked up): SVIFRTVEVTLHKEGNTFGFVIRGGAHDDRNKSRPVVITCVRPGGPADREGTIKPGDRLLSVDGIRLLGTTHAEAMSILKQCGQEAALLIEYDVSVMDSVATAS

T5: LNX2_3, Q8N448
T5 sequence (Q8N448 463-564, limits assumed, looked up): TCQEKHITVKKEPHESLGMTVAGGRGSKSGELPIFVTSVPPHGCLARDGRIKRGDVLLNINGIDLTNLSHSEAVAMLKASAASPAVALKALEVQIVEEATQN

T6: MPP2, Q14168
T6 sequence (Q14168 180-250, limits assumed, looked up): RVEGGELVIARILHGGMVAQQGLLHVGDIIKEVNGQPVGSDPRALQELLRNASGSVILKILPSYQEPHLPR

T7: MPP6, Q9NZW5
T7 sequence (Q9NZW5 125-219, limits assumed, looked up): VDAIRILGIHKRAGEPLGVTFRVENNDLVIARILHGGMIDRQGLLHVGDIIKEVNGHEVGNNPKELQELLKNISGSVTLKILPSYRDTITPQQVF

T8: MPP7, Q5T2T1
T8 sequence (Q5T2T1 134-230, limits assumed, looked up): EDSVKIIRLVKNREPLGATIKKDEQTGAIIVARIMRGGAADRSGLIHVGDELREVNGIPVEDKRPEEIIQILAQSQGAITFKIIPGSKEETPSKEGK

T9: RHPN1, Q8TCX5
T9 sequence (Q8TCX5 508-602, limits assumed, looked up): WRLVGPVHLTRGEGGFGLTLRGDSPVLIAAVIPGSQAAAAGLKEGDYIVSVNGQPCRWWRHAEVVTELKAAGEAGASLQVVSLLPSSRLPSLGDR

T10: SIPA1L2, Q9P2F8
T10 sequence (Q9P2F8 945-1036, limits assumed, looked up): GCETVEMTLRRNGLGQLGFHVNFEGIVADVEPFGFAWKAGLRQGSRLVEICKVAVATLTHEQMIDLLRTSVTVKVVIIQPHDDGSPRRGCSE

T11: SNTG2, Q9NY99
T11 sequence (Q9NY99 68-166, limits assumed, looked up): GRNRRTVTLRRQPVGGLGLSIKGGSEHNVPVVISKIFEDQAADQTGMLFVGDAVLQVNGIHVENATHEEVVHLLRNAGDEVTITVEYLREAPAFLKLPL


Assays:
Experiment in all cases: holdup assay
Set-up in all cases: key: below the threshold = too weak to quantify, mostly under pKd 3.1 to 4
Settings in all cases: plain residues with an end cap or a label only (N-terminal biotin on a linker: ado-ado)
ARHGEF12, Q9NZN5-2 = target: ARHGEF12, Q9NZN5-2
Sequence of ARHGEF12, Q9NZN5-2 (Q9NZN5 other isoform, or with tags, fused parts or gaps): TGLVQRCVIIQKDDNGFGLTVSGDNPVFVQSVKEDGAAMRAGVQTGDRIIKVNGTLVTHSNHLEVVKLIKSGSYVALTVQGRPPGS

CARD11, Q9BXL7 = target: T1, CARD11, Q9BXL7
DLG3_2, Q92796 = target: T2, DLG3_2, Q92796
DLG3_3, Q92796 = target: T3, DLG3_3, Q92796
FRMPD2_2, Q68DX3 = target: FRMPD2_2, Q68DX3
Sequence of FRMPD2_2, Q68DX3 (Q68DX3 944-1038): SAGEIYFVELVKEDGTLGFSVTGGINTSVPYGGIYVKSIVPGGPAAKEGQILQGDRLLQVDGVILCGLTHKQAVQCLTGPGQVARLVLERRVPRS

GIPC2, Q8TF65 = target: GIPC2, Q8TF65
Sequence of GIPC2, Q8TF65 (Q8TF65 112-203): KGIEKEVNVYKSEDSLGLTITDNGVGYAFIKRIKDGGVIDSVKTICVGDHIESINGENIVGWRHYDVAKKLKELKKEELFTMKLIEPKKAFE

GRIP1_2, Q9Y3R0 = target: T4, GRIP1_2, Q9Y3R0
GRIP2_4, Q9C0E4 = target: GRIP2_4, Q9C0E4
Sequence of GRIP2_4, Q9C0E4 (Q9C0E4 446-548): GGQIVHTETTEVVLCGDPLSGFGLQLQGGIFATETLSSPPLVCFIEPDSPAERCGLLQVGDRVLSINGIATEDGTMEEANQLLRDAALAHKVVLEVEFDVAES

GRIP2_5, Q9C0E4 = target: GRIP2_5, Q9C0E4
Sequence of GRIP2_5, Q9C0E4 (Q9C0E4 544-642): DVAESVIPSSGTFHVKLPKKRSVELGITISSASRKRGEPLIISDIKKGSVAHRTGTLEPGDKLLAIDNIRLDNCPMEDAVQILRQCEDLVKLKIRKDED

GRIP2_7, Q9C0E4 = target: GRIP2_7, Q9C0E4
Sequence of GRIP2_7, Q9C0E4 (Q9C0E4 934-1023): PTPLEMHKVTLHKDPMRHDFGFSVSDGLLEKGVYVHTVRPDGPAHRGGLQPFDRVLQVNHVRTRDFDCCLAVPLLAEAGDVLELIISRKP

IL16_4, Q14005 = target: IL16_4, Q14005
Sequence of IL16_4, Q14005 (Q14005 1229-1329): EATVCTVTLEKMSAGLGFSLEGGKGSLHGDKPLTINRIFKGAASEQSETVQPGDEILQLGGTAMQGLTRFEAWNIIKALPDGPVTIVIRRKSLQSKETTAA

Inadl_4, Q8NI35 = target: Inadl_4, Q8NI35
Sequence of Inadl_4, Q8NI35 (Q8NI35 547-651): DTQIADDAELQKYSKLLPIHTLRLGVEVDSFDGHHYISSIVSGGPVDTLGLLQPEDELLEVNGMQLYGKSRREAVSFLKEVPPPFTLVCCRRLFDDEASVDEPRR

LNX2_3, Q8N448 = target: T5, LNX2_3, Q8N448
MPP2, Q14168 = target: T6, MPP2, Q14168
MPP6, Q9NZW5 = target: T7, MPP6, Q9NZW5
MPP7, Q5T2T1 = target: T8, MPP7, Q5T2T1
NHERF4_1, Q86UT5-2 = target: NHERF4_1, Q86UT5-2
Sequence of NHERF4_1, Q86UT5-2 (Q86UT5 other isoform, or with tags, fused parts or gaps): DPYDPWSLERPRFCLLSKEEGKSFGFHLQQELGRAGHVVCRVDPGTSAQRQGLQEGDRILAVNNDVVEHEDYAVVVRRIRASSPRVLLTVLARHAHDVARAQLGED

NOS1, P29475 = target: NOS1, P29475
Sequence of NOS1, P29475 (P29475 9-101): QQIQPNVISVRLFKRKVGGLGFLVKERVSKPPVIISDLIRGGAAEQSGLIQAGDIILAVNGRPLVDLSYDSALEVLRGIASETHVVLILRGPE

PDLIM1, O00151 = target: PDLIM1, O00151
Sequence of PDLIM1, O00151 (O00151 1-87): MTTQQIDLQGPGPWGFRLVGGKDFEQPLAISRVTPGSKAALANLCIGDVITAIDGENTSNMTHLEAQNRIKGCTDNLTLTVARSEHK

PTPN3, P26045 = target: PTPN3, P26045
Sequence of PTPN3, P26045 (P26045 505-587): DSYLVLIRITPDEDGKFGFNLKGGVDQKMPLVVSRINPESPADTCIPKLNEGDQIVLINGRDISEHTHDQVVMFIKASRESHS

RHPN1, Q8TCX5 = target: T9, RHPN1, Q8TCX5
SCRIB_1, Q14160 = target: SCRIB_1, Q14160
Sequence of SCRIB_1, Q14160 (Q14160 718-814): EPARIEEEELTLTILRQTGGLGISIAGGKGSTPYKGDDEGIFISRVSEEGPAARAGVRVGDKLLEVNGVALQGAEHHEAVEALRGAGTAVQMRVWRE

SCRIB_3, Q14160 = target: SCRIB_3, Q14160
Sequence of SCRIB_3, Q14160 (Q14160 999-1103): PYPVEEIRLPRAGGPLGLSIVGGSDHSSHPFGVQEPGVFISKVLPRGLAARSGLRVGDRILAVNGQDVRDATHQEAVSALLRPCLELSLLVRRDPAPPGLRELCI

SIPA1L2, Q9P2F8 = target: T10, SIPA1L2, Q9P2F8
SNTG2, Q9NY99 = target: T11, SNTG2, Q9NY99
TJP2_1, Q9UDY2 = target: TJP2_1, Q9UDY2
Sequence of TJP2_1, Q9UDY2 (Q9UDY2 24-128): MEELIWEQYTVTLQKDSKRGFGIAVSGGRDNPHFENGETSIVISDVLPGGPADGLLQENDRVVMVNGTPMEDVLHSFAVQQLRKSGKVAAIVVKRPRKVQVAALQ

Row | Binder | pKd (ARHGEF12, Q9NZN5-2) | pKd (CARD11, Q9BXL7) | pKd (DLG3_2, Q92796) | pKd (DLG3_3, Q92796) | pKd (FRMPD2_2, Q68DX3) | pKd (GIPC2, Q8TF65) | pKd (GRIP1_2, Q9Y3R0) | pKd (GRIP2_4, Q9C0E4) | pKd (GRIP2_5, Q9C0E4) | pKd (GRIP2_7, Q9C0E4) | pKd (IL16_4, Q14005) | pKd (Inadl_4, Q8NI35) | pKd (LNX2_3, Q8N448) | pKd (MPP2, Q14168) | pKd (MPP6, Q9NZW5) | pKd (MPP7, Q5T2T1) | pKd (NHERF4_1, Q86UT5-2) | pKd (NOS1, P29475) | pKd (PDLIM1, O00151) | pKd (PTPN3, P26045) | also measured
1 | RELVMRVTTV [MARCHF4, Q9P2E8] | 4.86 | below the threshold | 5.22 | 4.63 | 4.06 | below the threshold | below the threshold | below the threshold | below the threshold | below the threshold | below the threshold | below the threshold | below the threshold | below the threshold | 3.59 | below the threshold | below the threshold | 3.71 | below the threshold | 4.54 | pKd (RHPN1, Q8TCX5): 4.06; pKd (SCRIB_1, Q14160): 4.67; pKd (SCRIB_3, Q14160): 4.73; pKd (SIPA1L2, Q9P2F8): below the threshold; pKd (SNTG2, Q9NY99): 4.64; pKd (TJP2_1, Q9UDY2): 3.86
2 | QFTLRHWLKV [SLC6A3, Q01959] | below the threshold | below the threshold | below the threshold | below the threshold | below the threshold | below the threshold | below the threshold | below the threshold | below the threshold | below the threshold | below the threshold | below the threshold | below the threshold | 3.87 | below the threshold | below the threshold | below the threshold | below the threshold | below the threshold | below the threshold | pKd (RHPN1, Q8TCX5): below the threshold; pKd (SCRIB_1, Q14160): below the threshold; pKd (SCRIB_3, Q14160): 3.51; pKd (SIPA1L2, Q9P2F8): 3.89; pKd (SNTG2, Q9NY99): below the threshold; pKd (TJP2_1, Q9UDY2): below the threshold
3 | LEPAVRSSEL [SH2D3C, Q8N5H7] | 4.91 | below the threshold | below the threshold | below the threshold | below the threshold | below the threshold | below the threshold | below the threshold | below the threshold | below the threshold | below the threshold | below the threshold | below the threshold | below the threshold | below the threshold | below the threshold | 4.18 | below the threshold | 3.5 | 4.82 | pKd (RHPN1, Q8TCX5): 3.66; pKd (SCRIB_1, Q14160): 3.78; pKd (SCRIB_3, Q14160): 4.39; pKd (SIPA1L2, Q9P2F8): below the threshold; pKd (SNTG2, Q9NY99): below the threshold; pKd (TJP2_1, Q9UDY2): below the threshold
4 | DQPLEKSTKL [AKAP10, O43572] | 4.97 | below the threshold | 4.14 | below the threshold | below the threshold | below the threshold | below the threshold | below the threshold | below the threshold | below the threshold | below the threshold | below the threshold | below the threshold | below the threshold | below the threshold | below the threshold | 4.28 | below the threshold | below the threshold | 4.62 | pKd (RHPN1, Q8TCX5): 3.96; pKd (SCRIB_1, Q14160): 3.72; pKd (SCRIB_3, Q14160): 4.14; pKd (SIPA1L2, Q9P2F8): below the threshold; pKd (SNTG2, Q9NY99): 3.64; pKd (TJP2_1, Q9UDY2): below the threshold
5 | PASAKGPLGV [CLDN19, Q8N6F1] | below the threshold | below the threshold | below the threshold | below the threshold | below the threshold | below the threshold | below the threshold | below the threshold | below the threshold | below the threshold | 3.55 | below the threshold | below the threshold | below the threshold | below the threshold | below the threshold | 3.49 | below the threshold | below the threshold | below the threshold | pKd (RHPN1, Q8TCX5): below the threshold; pKd (SCRIB_1, Q14160): below the threshold; pKd (SCRIB_3, Q14160): below the threshold; pKd (SIPA1L2, Q9P2F8): below the threshold; pKd (SNTG2, Q9NY99): below the threshold; pKd (TJP2_1, Q9UDY2): below the threshold
